{
  "source": "patent US6410248",
  "binders": {"B1": {"name": "Zif268 site (dsDNA)", "DNA 1": "CCAGTAGCGGGGGCGTCCTCG", "DNA 2": "CGAGGACGCCCCCGCTACTGG"}},
  "molecular_target": "Zif268 zinc fingers 1-3 (wild type) (UniProt P08046 SEQ:1-90)",
  "assay": "EMSA; 15 mM Hepes-NaOH pH 7.9, 50 mM KCl, 50 mM K glutamate, 50 mM K acetate, 5 mM MgCl2, 20 uM ZnSO4, no competitor DNA",
  "data": [
    {"binder": "B1", "values": [
      {"measurement": "Kd", "value": 0.01, "unit": "nM"}
    ]}
  ]
}
